Assay results published in the supplement of paper PMC12042874.
± gives the uncertainty stated by the source.

Assay: amyloid nucleation score (Sup35N fusion, yeast selection) (log enrichment); library NNK2; higher = more nucleation; inactive = no reads after selection
Procedure, shortened: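 The nucleation score is the DiMSum log enrichment of output over input reads, centred on the mode score of non-aggregating sequences. Only sequences with 100 or more input reads were scored, using Illumina sequencing of input and output plasmid inserts. Psi-negative yeast expressing Sup35N fused to peptides of 20 random codons were induced 24 hours with 100 μM copper sulfate and grown 7 days at 30°C on medium lacking adenine and uracil.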

| Substance | amyloid nucleation score |
| --- | --- |
| GVPIGKKYRTSVCENMEGSW | -0.627 ± 0.31 |
| GVQYRSGESGDSASYWRLGG | 0.628 ± 0.38 |
| GVRDVIQL | 2.05 ± 0.26 |
| GVREYMH | 0.544 ± 0.28 |
| GVRWYAMRPEVGYL | 0.155 ± 1.1 |
| GVRYSFSTTRKFTELSFNIC | 3 ± 0.16 |
| GVSSNGSLCWCVFMKVPAVC | 2.98 ± 0.078 |
| GVSVV | inactive |
| GVVNLTD | 3.01 ± 0.061 |
| GVVYLGNRLISFSRSLSLKT | 0.387 ± 0.45 |
| GWCVHSKKDGKYCRSYTRQF | -0.136 ± 0.23 |
| GWFMNCTLVVKVTDTEIGLY | inactive |
| GWKDGLAASSF | 1.01 ± 0.2 |
| GWRKSLNWCVYVGEGASIVV | 0.517 ± 0.25 |
| GWVKTLEGLLMCLVVCNTVM | 2.98 ± 0.12 |
| GYCYYVPFMVGP | 0.817 ± 0.8 |
| GYFAYRVICNVVGDTGFSLA | -0.06 ± 1.1 |
| GYGRLIWLGACRL | 1.18 ± 0.48 |
| GYMYCISATCRDLSKGRTGT | -0.221 ± 0.39 |
| GYNGMGRCINWVRKYRWLLW | 5.355 ± 0.033 |
| GYNLKILESIMEGSAGLMCT | -0.779 ± 0.33 |
| GYRFEAPWYNGLTVYGRIFC | -1.1 ± 0.55 |
| GYRYHLWHVT | inactive |
| GYSTRIGASFGLGPVGCSAR | 3.06 ± 0.087 |
| GYYMRLS | inactive |

| Substance | amyloid nucleation score |
| --- | --- |
| HASTEIGSWL | 0.552 ± 0.42 |
| HASWIGISLS | -0.395 ± 0.74 |
| HCCHRFYMDSEIACTCFTTM | -0.523 ± 0.56 |
| HCGMAYFH | -0.111 ± 0.32 |
| HCHAVDSLNVHFKEFIHRMN | inactive |
| HCSFCVIVGFNRCDALGSHR | 7.03 ± 0.075 |
| HCSFG | 2.32 ± 0.12 |
| HDGICSNSGVVSINKNGNYD | 1.27 ± 0.29 |
| HDGVNCSYRSDSIYIVENTH | inactive |
| HDKLVTRLYWYSKCVVKGLN | -0.375 ± 1.1 |
| HDTESTLVTVLRAFLHRCDY | 0.411 ± 0.56 |
| HDVFVTYTTLLITARLMRRP | 1.86 ± 0.27 |
| HEECIGSCCYGRWSCGTTLW | 4.84 ± 0.054 |
| HEGIDVSMPHQDRTAADNLA | 0.409 ± 0.53 |
| HELAIISN | 2.97 ± 0.17 |
| HETLQASIFVLLIHTKYHES | -1.58 ± 1 |
| HFCVLLLSFKNKILNYAFMH | -0.393 ± 1.1 |
| HFFTQY | 2.95 ± 0.1 |
| HFGDIDKYRAADAGVVERNP | 4.25 ± 0.083 |
| HFLSFSMGWNSC | 4.82 ± 0.063 |
| HFMSYAAWAREWSVEPQ | 0.967 ± 0.66 |
| HFNFCLWDNENYRNGMVWCR | 0.042 ± 0.5 |
| HFPHGHDFVFTVCYDTHSCL | 0.729 ± 0.15 |
| HFSFTPFRTWV | -0.527 ± 0.27 |
| HFYCMV | 4.51 ± 0.11 |

| Substance | amyloid nucleation score |
| --- | --- |
| HGHLHYLMNR | -0.031 ± 1 |
| HGLEVVQMASSLELQARKKA | 0.049 ± 0.34 |
| HGMYKTG | 2.54 ± 0.11 |
| HHAHGFRPIGMCSCISMDPS | 7.87 ± 0.059 |
| HHGQTHHLMWNWIF | 4.27 ± 0.1 |
| HHLLPWGWRPVYGSRLRCTL | 4.23 ± 0.049 |
| HHRIFGMIDELSKVTNIHFG | -0.434 ± 0.74 |
| HIFVVGMDRSVVSRSVEP | inactive |
| HIGILTT | 1.64 ± 0.32 |
| HIGIWGRQTLR | 3.55 ± 0.049 |
| HIGSVVVELLSVRLLWHCMH | 5.94 ± 0.088 |
| HIMIFWYPVLTIKVQYDVGV | inactive |
| HKEEV | 0.163 ± 0.53 |
| HKFIPAVVSCMQGNMKNYWS | -0.166 ± 0.5 |
| HKLCGYIYIRVIRSWKWYKQ | -0.306 ± 0.63 |
| HKRHTLK | -0.809 ± 1.1 |
| HLCGC | inactive |
| HLCSCTMWGPHNRGFYYHWC | inactive |
| HLDGWRNFDYDIS | -2.3 ± 0.78 |
| HLRWARRIGVCTVFYLSRIC | 0.483 ± 0.57 |
| HLSCDWVLIDEGLACYM | -0.586 ± 0.54 |
| HLSFGFRRNRR | 0.967 ± 0.2 |
| HLTSKVTGASIKVTKVNYLD | -1.25 ± 0.64 |
| HLVVSMVRTLVCHFCRFDVS | 1.28 ± 0.41 |
| HLYCRALILLVVLPGYTQLL | -1.07 ± 0.78 |

| Substance | amyloid nucleation score |
| --- | --- |
| HMEKWCSSTMSRLLSVQLAK | 0.771 ± 0.29 |
| HMHQPSSPHLLLCV | -0.47 ± 0.46 |
| HNGVCSSRARVSLWAGRCWK | 0.742 ± 0.22 |
| HNLMCYGWNFLSVSVVDNCD | 6.552 ± 0.05 |
| HNLNKTGDKRFYTLFVSSPR | 0.012 ± 1 |
| HNPSIAARCGGICYDNITVW | 0.838 ± 0.51 |
| HNSCVSITSKLQCPLRTVSG | 0.252 ± 0.65 |
| HPGMVVIAE | 3.97 ± 0.075 |
| HPHKS | -0.325 ± 0.76 |
| HQRGMNLISFVWHSENVRIW | 1.07 ± 0.61 |
| HQVLYTIAISFTIELAVIIA | inactive |
| HRLQLPHHRKGKWVLLMWGV | -0.44 ± 0.41 |
| HRVAVTKYATRYIPLIMLNW | -0.354 ± 0.49 |
| HRVQSGLCSKNSRE | 2.96 ± 0.15 |
| HRVRSDDLVKAWPQWNALGA | 1.18 ± 0.12 |
| HRVYEFIKPLGPGAHTFVFT | 0.097 ± 1.1 |
| HRYEKSAHTVVWSIMVFS | 0.033 ± 0.45 |
| HSFIGSRIVSFGFDVRGRWA | 4.91 ± 0.059 |
| HSVKCDSLGFLPFSTYWLRI | -0.047 ± 0.79 |
| HTKVRGKRLCGDWSVRISCS | 0.733 ± 0.29 |
| HTSVFFRKKPGSCISRSLSL | inactive |
| HTYNLSKR | -1.1 ± 0.62 |
| HVCCFKSQDRCYWVG | -0.447 ± 0.63 |
| HVDIRLWTFNRSRFIGVFGV | 2.75 ± 0.079 |
| HVFADERMDVGGSITVTARG | 0.164 ± 1.1 |

| Substance | amyloid nucleation score |
| --- | --- |
| HVFFHFRDVTSGL | 4.64 ± 0.065 |
| HVNWVKKSSWLIGT | 0.62 ± 0.74 |
| HVTMCKYYFWYMEIVVVKP | -0.456 ± 0.55 |
| HVTRVSVLQVLELHSTMTGV | 4.09 ± 0.09 |
| HVVLTLGLRISQHRLLRYKK | 5.64 ± 0.095 |
| HVYIGVNLKRENKTHQTSSV | 4.77 ± 0.064 |
| HVYYTVNLVLVNLYPLYFFT | 5.855 ± 0.041 |
| HWDLIGGVL | -0.176 ± 1.1 |
| HWLRSGWELNVRVLGPQATF | 0.982 ± 0.34 |
| HWRFFCMDHNFILSVKDVVA | inactive |
| HWWLIIRDLKASRIDVRQWE | inactive |
| HYCRHLLVLHSSKYARSHSS | -0.338 ± 0.37 |
| HYFEIVA | -0.315 ± 0.45 |
| HYLAFVCIIFSLLRLITQPM | 2.53 ± 0.18 |
| HYLEGYRFDLEMIVCICQKG | 5.369 ± 0.049 |
| HYPQYCFFARKIFITCGYME | 5.22 ± 0.061 |
| HYRIWVMHMWDCYWTTNFHG | -0.393 ± 0.63 |
| IADQTMISRYSRS | 5.89 ± 0.084 |
| IAFFGLCMSRVSLGVLEMRL | 2.21 ± 0.18 |
| IAITDFVLVSVLHSKWCIF | -0.246 ± 0.5 |
| IAKMSFAINNDIYNCRFIST | 2.46 ± 0.11 |
| IAKPSVRHMYSFHVVDKTGH | inactive |
| IAPLWPYLNPYRVIFF | inactive |
| IAVAKYLTLKDVVLNSWNSY | 7.624 ± 0.036 |
| IAVYTYLAGAWKHLETLAFP | 3.8 ± 0.1 |

| Substance | amyloid nucleation score |
| --- | --- |
| ICFIVSSFRY | 2.58 ± 0.23 |
| ICFNDILQFTS | -0.498 ± 0.44 |
| ICFVFF | -0.777 ± 1 |
| ICIFIWIDASRACKPNIQCS | 5.58 ± 0.062 |
| ICIFSSCERSMGHRRC | 0.141 ± 0.38 |
| ICILDYND | -1.15 ± 0.76 |
| ICRLFVR | -0.454 ± 0.31 |
| ICSKRIFFSA | -0.772 ± 1.1 |
| IDERATSEDSSGRKDSVTFL | -0.306 ± 0.28 |
| IDKGSKVFTGLGLLFCSKYF | 7.2 ± 0.074 |
| IDLNLYERFDFQFTVSVPSV | inactive |
| IDLWWSATHVTLLLSAPGIY | -1.09 ± 0.42 |
| IDSADVSIVRCKTQVRRIMR | 5.62 ± 0.063 |
| IDYVGYMKWMMV | 0.016 ± 0.38 |
| IEGTVRYYPVSNFT | inactive |
| IEQFTVNLLTRRLKNSMGQN | -0.544 ± 0.79 |
| IEQVRDECHYTDVATLIEMM | 0.675 ± 0.24 |
| IEVRRKPSLDLKLDGEGIVR | 1.37 ± 0.32 |
| IFDVNCPS | -0.196 ± 1.1 |
| IFENI | inactive |
| IFGLNHWTVFSSPINLSTSG | inactive |
| IFHHPNHIHVDQFSPLLFYE | -0.64 ± 0.79 |
| IFIPSFWGIFTIPM | -1.01 ± 1 |
| IFIVYILCFFMREIFAPI | 3.77 ± 0.11 |
| IFRLELNTIIPPSQYNASAH | 4.57 ± 0.1 |

| Substance | amyloid nucleation score |
| --- | --- |
| IFSISLLMAQYIGVWFFRRV | inactive |
| IFVCAMV | 0.395 ± 0.65 |
| IFVGIIKIVCWNNEGVDDLQ | 4.61 ± 0.063 |
| IFVLNKQNYLRIYNVPPLLI | 5.667 ± 0.05 |
| IGARFKFNQWTSYYIQRF | inactive |
| IGDYLRLELVL | 0.187 ± 0.74 |
| IGISLSSRPCYTFFSRLRWI | -0.387 ± 0.38 |
| IGKSCRLRA | 0.609 ± 0.46 |
| IGLKYSLWVVGFEVRLRCAD | 3.86 ± 0.07 |
| IGSVGTPWE | -0.042 ± 0.45 |
| IGVSNLLCMFTLDPKGIQDG | 8.488 ± 0.056 |
| IGVYSVWNFMMVRSADARFN | 3.4 ± 0.16 |
| IHMWYSDG | -1.25 ± 0.75 |
| IHRGWSWMQSRILDVGSR | 0.162 ± 0.54 |
| IHSNEDFVRSESGVLDAYSV | -0.627 ± 0.42 |
| IHVPIQ | -0.046 ± 0.54 |
| IHWGLIIGSCRF | 1.56 ± 0.27 |
| IIDYFSN | -0.953 ± 1.1 |
| IIFDNFLEMVAILWLLVCCY | -1.66 ± 0.76 |
| IIIGFWVCWNSIASWSIVGR | -1.78 ± 1.1 |
| IIINFRVAINDWGFLSVSID | 5.515 ± 0.027 |
| IIPQNSQDQNRDISVKAFSV | -0.937 ± 0.61 |
